For the test, the system named is P407-induced hyperlipidemia mice. Put plainly: Effect of Repatha on serum TC and LDL-C in P407-induced hyperlipidemia mice (model validation). The class given is in vivo, mouse. The protocol: Model preparation and validation: Normal ICR mice were fasted overnight with water ad libitum. The poloxamer 407 (P407, 500 mg/kg) was intraperitoneally injected on the next day. […] The clinical drug Repatha was injected subcutaneously at a dose of 40 mg/kg for 24 hours, followed by intraperitoneal injection of P407. The serum TC and LDL-C levels were measured 24 hours after injection of P407 (Table 25).

Where [1] appears, read: serum, Repatha 40 mg/kg subcutaneous, 24 hours after P407 injection.

These results are taken from patent US20230416329A1, “A PEPTIDE WITH DISULFIDE BONDS AND INHIBITORY ACTIVITY AGAINST SERINE PROTEASES, DERIVED HYBRID PEPTIDES THEREOF, AND USES THEREOF” (INSTITUTE OF MATERIA MEDICA , CHINESE ACADEMY OF MEDICAL …, priority 2020, published 2023).

B1: Repatha: the clinical (marketed) drug Repatha, positive control in the P407 hyperlipidemia model (antibody, chains of the INN, looked up, V domains shown)
VH: EVQLVQSGAEVKKPGASVKVSCKASGYTLTSYGISWVRQAPGQGLEWMGWVSFYNGNTNYAQKLQGRGTMTTDPSTSTAYMELRSLRSDDTAVYYCARGYGMDVWGQGTTVTVSS
VL: ESALTQPASVSGSPGQSITISCTGTSSDVGGYNSVSWYQQHPGKAPKLMIYEVSNRPSGVSNRFSGSKSGNTASLTISGLQAEDEADYYCNSYTSTSMVFGGGTKLTVL
As to B1, the “serum TC and LDL-C levels (in words)” value (40 mg/kg s.c., P407 500 mg/kg i.p., ICR mice) is “significantly reduced the serum TC and LDL-C levels”. Under setting [1], this molecule displayed an LDL-C of 0.364 ± 0.097 mmol/L and a TC of 190.0 ± 36.6 mg/dL.
